# Test system: complete Freund's adjuvant (CFA)-induced chronic arthritis
# Experiment: CFA arthritis rats, arthritis index (inflammation score)
# Assay type: in vivo, rat
# Settings: for change of arthritis index compared to vehicle-treated arthritic group: E3 1 mg/kg or 911 10 mg/kg i.v. D14+D19, indomethacin 3 mg/kg/day p.o.; for arthritis index (score): arthritic rats
# Protocol: Five groups of 10 animals (5-weeks old male Lewis rats-LEWIS Lew/Ico, from Charles River Laboratories—Belgium) each were included in this study: Group 1: non arthritic rats/saline (vehicle), i.v. bolus, n=10; Group 2: arthritic rats/saline (vehicle), i.v. bolus, n=10; Group 3: arthritic rats/Indomethacin 3 mg/kg, p.o daily over 10 days, n=10; […]; Group 5: arthritic rats/911, 10 mg/kg, i.v. bolus, n=10. The doses were expressed in terms of free active substance (mg/kg). E3 and 911 were extemporaneously prepared in saline from the stock solution to the desired concentration. […]. All diluted solutions (before i.v. injection) were sterilized using a sterile filter unit of 0.20.μm. pH and osmolarity values of diluted solutions were measured before each i.v. injection. Before the first i.v., osmolarity (mosm/L) for saline, E3, and 911 were 278, 269, and 308 respectively; pH for saline, E3, and 911 were 5.93, 6.76, 6.71 respectively. Before the second i.v., osmolarity (mosm/L) for saline, E3, and 911 were 280, 270, and 309 respectively; pH for saline, E3, and 911 were 5.86, 6.72, and 6.59 respectively.
# E3 or 911 or saline were administered by i.v. bolus injection on Day 14 and Day 19 after arthritis induction in a coded and random order with a volume of 5 mL/kg. The non arthritic group was given by i.v. bolus injection of saline on Day 14 and Day 19 with a volume of 5 mL/kg. Indomethacin was extemporaneously prepared in 1% methylcellulose. Indomethacin was administered by oral route (p.o.) once daily over 10 days from Day 14 to Day 23 after arthritis induction in a coded and random order with a volume of 10 mL/kg.
# Arthritis index was evaluated using an inflammation score for each hind and forepaw (arthritic rats): Score 0: normal aspect; Score 1: erythema; Score 2: erythema with slight edema; Score 3: strong inflammation without ankylosis; Score 4: ankylosis. This evaluation was performed at the following times (after induction of arthritis): Day 14 (before i.v. bolus or p.o. administration); and Day 24 (5 days after the last i.v. bolus injection or 24 h after the last p.o. administration). All measurements were performed between 2:00 and 3:00 pm (D 14), 8:00 and 9:00 am (D 24). All the data were collected and stored by the WinDas software.
# All results were reported as Mean ±S.E.M. of 10 rats in each group at each time point. Paw volume was expressed in ml calculated from the mean value of the right and left paw volume. Arthritis index was calculated from the sum of the score obtained for each of the 4 paws. The nociceptive response was evaluated by the intensity of the level of vocalization recorded for each animal (mean of 4 values: 2 times/paw) in mV. The percentage inhibition of the nociceptive response was calculated from the mean value of the vehicle-treated arthritic group [(mean value of vehicle-treated arthritic group−mean value of treated arthritic group/mean value of vehicle-treated arthritic group)*100]. Body weight was expressed in grams. Hindpaws (left and right) weight was expressed in grams. Cytokine levels (IL-6, IL-1β, TNF-α and TGF-β1) of each hind paw was expressed in pg/ml. Circulating levels of TGF-β1 was expressed in pg/ml. Radiological index for each parameter (demineralization, erosions, periostal reaction, soft tissue damage, space joint, osteogenesis deformity) and total radiological index (total score) were calculated from the sum of the scores obtained for each parameter. The inter-group significances of the deviations between the values of vehicle-treated group (arthritic rats) and vehicle-treated group (non arthritic rats) were assessed by the Student t test or Mann-Whitney Rank Sum Test when equal variance or normality test failed. The inter-group significances of the deviations between the values of vehicle-treated group (arthritic rats) and E3- and 911- and Indomethacin-treated groups were assessed by the 1-way analysis of variance ANOVA followed by the non-paired Dunnett t test. […]
Molecule,change of arthritis index compared to vehicle-treated arthritic group (D24),arthritis index (score) (D14 (before dosing)),"anti-inflammatory effects in arthritis model (conclusion) (E3 1 mg/kg i.v., 911 10 mg/kg i.v., D14+D19)","arthritis index (score) (E3 1 mg/kg or 911 10 mg/kg i.v. D14+D19, indomethacin 3 mg/kg/day p.o. 10 days, D24)"
"COc1ccc2c(c1)c(CC(=O)O)c(C)n2C(=O)c1ccc(Cl)cc1 [Indomethacin, reference compound]",about −8.0,8.7±0.6,,
"E3: humanized, affinity matured anti-NGF antagonist antibody; variable regions SEQ ID NO:1 and 2; human IgG2a (A330P331 to S330S331), kappa (antibody, V domains shown, human IgG2a constant (A330S/P331S) and kappa constant missing) VH: QVQLQESGPGLVKPSETLSLTCTVSGFSLIGYDLNWIRQPPGKGLEWIGIIWGDGTTDYNSAVKSRVTISKDTSKNQFSLKLSSVTAADTAVYYCARGGYWYATSYYFDYWGQGTLVTVS VL: DIQMTQSPSSLSASVGDRVTITCRASQSISNNLNWYQQKPGKAPKLLIYYTSRFHSGVPSRFSGSGSGTDFTFTISSLQPEDIATYYCQQEHTLPYTFGQGTKLEIKRT",did not affect the arthritis index,10.2±0.4,did not show significant anti-inflammatory effects,11.4±0.4

# Reference: patent US20080182978A1, “ANTI-NGF ANTIBODIES AND METHODS USING SAME” (RINAT NEUROSCIENCE CORP, priority 2002, published 2008)
